Experimental findings from IntAct's records for PubMed 23222643 are described below.

Sequences and labels used below:
B1: Formin-like protein 3 (Mus musculus), Q6ZPF4-1 (parent)
chain: MGNLESTDGGPGEPPSVPLLLPPGKTPMPEPCELEERFALVLSSMNLPPDKARLLRQYDNEKKWDLICDQERFQVKNPPHTYIQKLQSFLDPNVTRKKFRRRVQESTKVLRELEISLRTNHIGWVREFLNDENKGLDVLVDYLSFAQCSVMFDFEGLESGDDGAFDKLRSWSRSIEDLQPPNALSAPFTNSLARSARQSVLRYSTLPGRRALKNSRLVSQKDDVHVCILCLRAIMNYQYGFNLVMSHPHAVNEIALSLNNKNPRTKALVLELLAAVCLVRGGHEIILAAFDNFKEVCKELHRFEKLMEYFRNEDSNIDFMVACMQFINIVVHSVEDMNFRVHLQYEFTKLGLEEFLQKSRHTESEKLQVQIQAYLDNVFDVGGLLEDAETKNVALEKVEELEEHVSHLTEKLLDLENENMMRVAELEKQLLQREKELESIKETYENTSNQVHTLRRLIKEKEEAFQRRCHLEPSARGLESMGGEALARVGPTELTEGIPPSDLDLLAPAPPTEETLPLPPPPAPPLPPPPPPLPDKCPPAPPLPGAAPSVVLTVGLSAIRIKKPIKTKFRLPVFNWTALKPNQINGTVFSELDDEKILEDLDLDRFEELFKTKAQGPALDLICSKNKTAQKAASKVTLLEANRAKNLAITLRKAGRSAEEICRAIHTFDLQTLPVDFVECLMRFLPTEAEVKLLRQYERERQPLEELAAEDRFMLLFSKVERLTQRMAGMAFLGNFQDNLQMLTPQLNAIIAASASVKSSQKLKQMLEIILALGNYMNSSKRGAVYGFKLQSLDLLLDTKSTDRKMTLLHFIALTVKEKYPELANFWQELHFVEKAAAVSLENVLLDVKELGRGMELIRRECSIHDNSVLRNFLSTNEGKLDKLQRDAKTAEEAYNAVVRYFGESPKTTPPSVFFPVFVRFIRSYKEAEQENEARKKQEEVMREKQLAQEAKKLDAKTPSQRNKWQQQELIAELRRRQAKEHRPVYEGKDGTIEDIITVLKSVPFTARTAKRGSRFFCDAAHHDESNC

In the experiment the parent is B1. Particulars: with acts_rabit ACTA1, P68135.
Regarding I649A, the “effect of a mutation on the interaction” value is given as “decreasing interaction strength”.
